Tests used:
[1] = molecular target: T1, SAV-CD99 complex (biotinylated CD99 ECD tetramerized on streptavidin) (human, UniProt P22629 37-163 (Streptomyces avidinii entry), limits assumed, DyLight650 label; biotin on the AviTag); experiment: yeast display binding signal (FIG. 5E)
T1 construct: also called tetramerized CD99; tetramerized SUMO-CD99; not shown: N-terminal 6xHis tag, AviTag, TEV site and fusion partner

[2] = molecular target: T2, CD99 endogenously expressed on cells (Jurkat, KOPT-K1) (human, UniProt P14209 23-185, O-linked glycosylation (natural, on cells)); experiment: flow cytometry titration on KOPT-K1 cells; apparent KD (FIG. 3B)
T2 construct: also called endogenously expressed CD99; CD99 on cells
T2 sequence: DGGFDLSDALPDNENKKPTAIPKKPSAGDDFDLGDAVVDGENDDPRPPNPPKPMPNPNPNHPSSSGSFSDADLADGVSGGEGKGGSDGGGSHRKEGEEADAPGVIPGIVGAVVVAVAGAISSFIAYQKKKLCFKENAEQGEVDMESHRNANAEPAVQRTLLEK

[3] = molecular target: T2, CD99 endogenously expressed on cells …; experiment: cell-based or functional assay
[4] = molecular target: T3, CD99L2 extracellular domain (human, UniProt Q8TCZ2 26-185); experiment: binding of scFv-Fc to immobilized homolog ECDs (FIG. 1B)
T3 construct: extracellular domain
T3 sequence (looked up): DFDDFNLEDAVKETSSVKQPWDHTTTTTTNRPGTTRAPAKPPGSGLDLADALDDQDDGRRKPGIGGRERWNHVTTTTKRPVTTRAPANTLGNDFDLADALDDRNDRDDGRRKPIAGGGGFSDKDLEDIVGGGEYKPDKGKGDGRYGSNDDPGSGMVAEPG

[5] = molecular target: T4, Glycoprotein Xg extracellular domain (human, UniProt P55808 22-142); experiment: as above
T4 construct: extracellular domain
T4 sequence (looked up): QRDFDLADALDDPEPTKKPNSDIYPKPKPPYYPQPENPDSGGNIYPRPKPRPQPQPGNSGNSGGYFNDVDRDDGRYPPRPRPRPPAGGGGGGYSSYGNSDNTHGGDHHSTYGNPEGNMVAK

[6] = molecular target: T5, recombinant CD99 extracellular domain (fusion partner not given) (human, UniProt P14209 23-122); experiment: Western blot of recombinant CD99
T5 construct: also called CD99 ECD; human CD99; not shown: N-terminal 6xHis tag, AviTag, TEV site and a fusion partner (SUMO or GFP)
T5 sequence: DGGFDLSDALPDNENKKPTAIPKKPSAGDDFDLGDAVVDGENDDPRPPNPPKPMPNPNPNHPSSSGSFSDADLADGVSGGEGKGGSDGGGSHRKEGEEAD

[7] = molecular target: T2, CD99 endogenously expressed on cells …; experiment: flow cytometry on Jurkat cells (FIG. 1E)
mouse CD99 = molecular target: T6, mouse CD99 (mouse, UniProt Q8VCN6 29-137, limits assumed); experiment: binding of scFv-Fc to CD99 from different species (FIG. 1C)
T6 sequence (looked up): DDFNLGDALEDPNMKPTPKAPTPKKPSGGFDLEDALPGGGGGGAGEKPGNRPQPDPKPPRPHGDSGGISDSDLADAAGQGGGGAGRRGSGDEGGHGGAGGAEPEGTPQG

[8] = molecular target: T2, CD99 endogenously expressed on cells …; experiment: flow cytometry titration on Jurkat cells (FIG. 1G)

T1 sequence (P22629 37-163 limits assumed, one chain of several): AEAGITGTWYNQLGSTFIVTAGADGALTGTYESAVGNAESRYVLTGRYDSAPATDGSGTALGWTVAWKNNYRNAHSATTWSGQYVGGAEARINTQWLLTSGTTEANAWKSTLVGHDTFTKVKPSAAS

B1: 10A1 with light chain D50 mutated to serine (yeast display format) (scFv, V domains shown)
VH: QVQLQQSGPVLVKPSQTLSLTCAISGDSISSDTTAWSWIRRSPSRGLEWLGWTYYRSKWFNYYAVSVKGRVTINPDTSKNQFSLQLSSVTPEDTAVYYCARGNGNGGMDVWGQGTTVTVSS
VL: SYVLTQPASASVSPGQTARITCSGDALPKQYAYWYQQKPGQAPVLVIFKSSERPSGVPERFSGSSSGTTVTLTISGAQAEDEADYYCQSVDNSGFYQVFGGGTQLTVL
notes: also called D50L to serine
Does B1 bind [1]?
Result: no binding (tested: 100 nM SAV-CD99 complex)

B2: 10A1 with light chain D91 mutated to serine (yeast display format) (scFv, V domains shown)
VH: QVQLQQSGPVLVKPSQTLSLTCAISGDSISSDTTAWSWIRRSPSRGLEWLGWTYYRSKWFNYYAVSVKGRVTINPDTSKNQFSLQLSSVTPEDTAVYYCARGNGNGGMDVWGQGTTVTVSS
VL: SYVLTQPASASVSPGQTARITCSGDALPKQYAYWYQQKPGQAPVLVIFKDSERPSGVPERFSGSSSGTTVTLTISGAQAEDEADYYCQSVSNSGFYQVFGGGTQLTVL
notes: also called D91L to serine
Does B2 bind [1]?
Result: no binding (tested: 100 nM SAV-CD99 complex)

B3: 10A1 IgG-E345R (antibody)
heavy: QVQLQQSGPVLVKPSQTLSLTCAISGDSISSDTTAWSWIRRSPSRGLEWLGWTYYRSKWFNYYAVSVKGRVTINPDTSKNQFSLQLSSVTPEDTAVYYCARGNGNGGMDVWGQGTTVTVSSASTKGPSVFPLAPSSKSTSGGTAALGCLVKDYFPEPVTVSWNSGALTSGVHTFPAVLQSSGLYSLSSVVTVPSSSLGTQTYICNVNHKPSNTKVDKKVEPKSCDKTHTCPPCPAPEAAGGPSVFLFPPKPKDTLMISRTPEVTCVVVDVSHEDPEVKFNWYVDGVEVHNAKTKPREEQYNSTYRVVSVLTVLHQDWLNGKEYKCKVSNKALGAPIEKTISKAKGQPRRPQVYTLPPSREEMTKNQVSLTCLVKGFYPSDIAVEWESNGQPENNYKTTPPVLDSDGSFFLYSKLTVDKSRWQQGNVFSCSVMHEALHNHYTQKSLSLSPGK
light: SYVLTQPASASVSPGQTARITCSGDALPKQYAYWYQQKPGQAPVLVIFKDSERPSGVPERFSGSSSGTTVTLTISGAQAEDEADYYCQSVDNSGFYQVFGGGTQLTVLRTVAAPSVFIFPPSDEQLKSGTASVVCLLNNFYPREAKVQWKVDNALQSGNSQESVTEQDSKDSTYSLSSTLTLSKADYEKHKVYACEVTHQGLSSPVTKSFNRGEC
notes: Valency of twelve as a hexamer; also called 10A1 E345R; 'inducible hexamer'
B3 was tested. Which “fold higher KD than IgG-RGY, IgG-HCscFv and IgG” value [2] did it give?
The value was ~3 fold.

And the “IC50 of cytotoxicity (Annexin V, KOPT-K1 cells, 18 hours)” value [3]?
Its value is 299 nM Fv.

B4: 10A1 IgG-RGY (antibody)
heavy: QVQLQQSGPVLVKPSQTLSLTCAISGDSISSDTTAWSWIRRSPSRGLEWLGWTYYRSKWFNYYAVSVKGRVTINPDTSKNQFSLQLSSVTPEDTAVYYCARGNGNGGMDVWGQGTTVTVSSASTKGPSVFPLAPSSKSTSGGTAALGCLVKDYFPEPVTVSWNSGALTSGVHTFPAVLQSSGLYSLSSVVTVPSSSLGTQTYICNVNHKPSNTKVDKKVEPKSCDKTHTCPPCPAPEAAGGPSVFLFPPKPKDTLMISRTPEVTCVVVDVSHEDPEVKFNWYVDGVEVHNAKTKPREEQYNSTYRVVSVLTVLHQDWLNGKEYKCKVSNKALGAPIEKTISKAKGQPRRPQVYTLPPSREEMTKNQVSLTCLVKGFYPSDIAVEWESNGQPENNYKTTPPVLDSDGSFFLYSKLTVDKSRWQQGNVFSCSVMHGALHNHYTQKYLSLSPGK
light: SYVLTQPASASVSPGQTARITCSGDALPKQYAYWYQQKPGQAPVLVIFKDSERPSGVPERFSGSSSGTTVTLTISGAQAEDEADYYCQSVDNSGFYQVFGGGTQLTVLRTVAAPSVFIFPPSDEQLKSGTASVVCLLNNFYPREAKVQWKVDNALQSGNSQESVTEQDSKDSTYSLSSTLTLSKADYEKHKVYACEVTHQGLSSPVTKSFNRGEC
B4 was tested. Which “IC50 of cytotoxicity (Annexin V, KOPT-K1 cells, 18 hours)” value [3] did it give?
The value was 442 nM Fv.

B5: clone 30 in the scFv-Fc format (Fc fusion)
chain: EVQLLETGGGLVQPGGSLRLSCAASGFTFSSSAMHWVRQAPGKGLEWVAAISYDGSDTYYADSVKGRFTISRDNAKNTLYLQMNSLRDEDTAVYYCARDQVLGSGSLDYWGQGTLVTVSSGILGSGGGGSGGGGSGGGGSNFMLTQPHSVSESPGKTVTISCTRSSGSIGSYYVQWYQQRPGSPPTTVIYEDDKRPSGVPDRFSGSIDSSSNSASLTISGLKTEDEADYYCQSYDSSHVVFGGGTKLTVLSGSSSSLEGCKPCICTVPEVSSVFIFPPKPKDVLTITLTPKVTCVVVDISKDDPEVQFSWFVDDVEVHTAQTQPREEQFNSTFRSVSELPIMHQDWLNGKEFKCRVNSAAFPAPIEKTISKTKGRPKAPQVYTIPPPKEQMAKDKVSLTCMITDFFPEDITVEWQWNGQPAENYKNTQPIMDTDGSYFVYSKLNVQKSNWEAGNTFTCSVLHEGLHNHHTEKSLSHSPGKGGGGLNDIFEAQKIEWHESRHHHHHH
notes: The format mimics the bivalent IgG architecture
Does B5 bind [4]?
Result: no binding (tested: 600 nM Fv)

Does B5 bind [5]?
Result: no binding (tested: 600 nM Fv)

Does B5 bind [6]?
Result: binds

Does B5 bind [7]?
Result: binds

Does B5 bind (mouse CD99)?
Result: no binding (tested: 1 µM Fv)

B6: clone 10 in the scFv-Fc format (Fc fusion)
chain: QVQLQQSGPVLVKPSQTLSLTCAISGDSVSSDTTAWSWIRQSPSRGLEWLGWTYYRSKWFNYYAVSVKSRVTINPDTSKNQFSLQLSSVTPEDTAVYYCARGNGNGGMDVWGQGTTVTVSSGILGSGGGGSGGGGSGGGGSSYVLTQPPSVSVSPGQTARITCSGDALPKQYAYWYQQKPGQAPVLVIFKDSERPSGIPERFSGSSSGTTVTLTISGVQAEDEADYYCQSADNSGFYQVFGGGTQLTVLSGSSSSLEGCKPCICTVPEVSSVFIFPPKPKDVLTITLTPKVTCVVVDISKDDPEVQFSWFVDDVEVHTAQTQPREEQFNSTFRSVSELPIMHQDWLNGKEFKCRVNSAAFPAPIEKTISKTKGRPKAPQVYTIPPPKEQMAKDKVSLTCMITDFFPEDITVEWQWNGQPAENYKNTQPIMDTDGSYFVYSKLNVQKSNWEAGNTFTCSVLHEGLHNHHTEKSLSHSPGKGGGGLNDIFEAQKIEWHESRHHHHHH
notes: also called Clone 10 scFv-Fc antibody
Does B6 bind [4]?
Result: no binding (tested: 600 nM Fv)

Does B6 bind [5]?
Result: no binding (tested: 600 nM Fv)

Does B6 bind [6]?
Result: binds

B7: clone 22 in the scFv-Fc format (Fc fusion)
chain: QVQLQQSGPGLVKPSQTLSLTCAISGDSVSSNSAAWNWIRQSPSRGLEWLGRTYYRSKWYNDYAVSVKSRITINPDTSKNQFSLQLNSVTPEDTAVYYCARGSYGSGLVWGQGTTVTVSSGSASAPTGILGSGGGGSGGGGSGGGGSNFMLTQPHSVSESPGKTVTISCTGSSGSIASNYVQWYQQRPGSAPTTVIYEDDQRPSGVPDRFSGSLDTSSNSASLTISGLRPEDEADYYCQSYDNKDNVVFGGGTKVTVLSGSSSSLEGCKPCICTVPEVSSVFIFPPKPKDVLTITLTPKVTCVVVDISKDDPEVQFSWFVDDVEVHTAQTQPREEQFNSTFRSVSELPIMHQDWLNGKEFKCRVNSAAFPAPIEKTISKTKGRPKAPQVYTIPPPKEQMAKDKVSLTCMITDFFPEDITVEWQWNGQPAENYKNTQPIMDTDGSYFVYSKLNVQKSNWEAGNTFTCSVLHEGLHNHHTEKSLSHSPGKGGGGLNDIFEAQKIEWHESRHHHHHH
notes: as for B5
Does B7 bind [4]?
Result: no binding (tested: 600 nM Fv)

Does B7 bind [5]?
Result: no binding (tested: 600 nM Fv)

Does B7 bind [6]?
Result: binds

Does B7 bind [7]?
Result: binds

Does B7 bind (mouse CD99)?
Result: no binding (tested: 1 µM Fv)

B8: 10A1 in the scFv-Fc format (Fc fusion)
chain: QVQLQQSGPVLVKPSQTLSLTCAISGDSISSDTTAWSWIRRSPSRGLEWLGWTYYRSKWFNYYAVSVKGRVTINPDTSKNQFSLQLSSVTPEDTAVYYCARGNGNGGMDVWGQGTTVTVSSGILSGSSSSGSSSSGSSSSGYVLTQPASASVSPGQTARITCSGDALPKQYAYWYQQKPGQAPVLVIFKDSERPSGVPERFSGSSSGTTVTLTISGAQAEDEADYYCQSVDNSGFYQVFGGGTQLTVLSGSSSSLEGCKPCICTVPEVSSVFIFPPKPKDVLTITLTPKVTCVVVDISKDDPEVQFSWFVDDVEVHTAQTQPREEQFNSTFRSVSELPIMHQDWLNGKEFKCRVNSAAFPAPIEKTISKTKGRPKAPQVYTIPPPKEQMAKDKVSLTCMITDFFPEDITVEWQWNGQPAENYKNTQPIMDTDGSYFVYSKLNVQKSNWEAGNTFTCSVLHEGLHNHHTEKSLSHSPGKGGGGLNDIFEAQKIEWHESRHHHHHH
notes: Bivalent; also called 10A1 scFv-Fc
For B8, which “fold improvement of apparent KD over Clone 10” value [8] is on record?
The value was 14 fold.

From patent US20240190985A1 (NEW YORK UNIVERSITY, published 2024)
